Test results from US20180140578A1 (University of Texas, published 2018).
Each block holds one binder with its values, some of them ahead of it.

Columns and labels:
DCAF15-3xFLAG [1] = molecular target: T1, DCAF15-3xFLAG (human, UniProt Q66K64 1-600); test: pull-down of 100 nM RBM39Δ150 P272S by DCAF15-3xFLAG on anti-FLAG beads with rising indisulam, western blot (FIG. 4C)
T1 construct: also called DDB1/DCAF15-3xFLAG; not shown: C-terminal 3xFLAG tag

DCAF15-3xFLAG [2] = molecular target: T1, DCAF15-3xFLAG; test: pull-down by DCAF15-3xFLAG on anti-FLAG beads, western blot (FIG. 4C)
CUL4A = molecular target: T2, CUL4A (human, UniProt Q13619 1-759, limits assumed); test: anti-FLAG co-immunoprecipitation from HCT-116 cells, western blot (FIG. 3E)
T2 construct: also called Cullin 4A
T2 sequence (Q13619 whole entry): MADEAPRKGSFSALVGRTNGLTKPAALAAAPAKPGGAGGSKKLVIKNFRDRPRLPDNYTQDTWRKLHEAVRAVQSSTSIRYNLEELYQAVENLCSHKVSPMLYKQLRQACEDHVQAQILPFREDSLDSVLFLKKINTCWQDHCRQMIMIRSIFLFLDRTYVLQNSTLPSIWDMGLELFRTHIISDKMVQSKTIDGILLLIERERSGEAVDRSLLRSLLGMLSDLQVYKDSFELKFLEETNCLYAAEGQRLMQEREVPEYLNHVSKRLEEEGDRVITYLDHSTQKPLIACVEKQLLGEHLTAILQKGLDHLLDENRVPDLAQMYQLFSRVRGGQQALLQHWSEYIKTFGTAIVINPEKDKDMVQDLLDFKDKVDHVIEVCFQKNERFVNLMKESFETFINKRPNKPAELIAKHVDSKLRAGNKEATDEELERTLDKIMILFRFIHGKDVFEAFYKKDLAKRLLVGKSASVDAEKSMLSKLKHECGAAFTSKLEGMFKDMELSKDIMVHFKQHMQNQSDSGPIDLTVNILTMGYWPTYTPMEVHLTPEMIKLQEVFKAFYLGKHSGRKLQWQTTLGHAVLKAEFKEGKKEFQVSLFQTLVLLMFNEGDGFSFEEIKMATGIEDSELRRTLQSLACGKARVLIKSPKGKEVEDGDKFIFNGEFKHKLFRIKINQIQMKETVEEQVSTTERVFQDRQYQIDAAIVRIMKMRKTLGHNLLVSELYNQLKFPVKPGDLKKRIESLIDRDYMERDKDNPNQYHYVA

CUL4B = molecular target: T3, CUL4B (human, UniProt Q13620 1-913, limits assumed); test: as above
T3 construct: also called Cullin 4B
T3 sequence (Q13620 whole entry): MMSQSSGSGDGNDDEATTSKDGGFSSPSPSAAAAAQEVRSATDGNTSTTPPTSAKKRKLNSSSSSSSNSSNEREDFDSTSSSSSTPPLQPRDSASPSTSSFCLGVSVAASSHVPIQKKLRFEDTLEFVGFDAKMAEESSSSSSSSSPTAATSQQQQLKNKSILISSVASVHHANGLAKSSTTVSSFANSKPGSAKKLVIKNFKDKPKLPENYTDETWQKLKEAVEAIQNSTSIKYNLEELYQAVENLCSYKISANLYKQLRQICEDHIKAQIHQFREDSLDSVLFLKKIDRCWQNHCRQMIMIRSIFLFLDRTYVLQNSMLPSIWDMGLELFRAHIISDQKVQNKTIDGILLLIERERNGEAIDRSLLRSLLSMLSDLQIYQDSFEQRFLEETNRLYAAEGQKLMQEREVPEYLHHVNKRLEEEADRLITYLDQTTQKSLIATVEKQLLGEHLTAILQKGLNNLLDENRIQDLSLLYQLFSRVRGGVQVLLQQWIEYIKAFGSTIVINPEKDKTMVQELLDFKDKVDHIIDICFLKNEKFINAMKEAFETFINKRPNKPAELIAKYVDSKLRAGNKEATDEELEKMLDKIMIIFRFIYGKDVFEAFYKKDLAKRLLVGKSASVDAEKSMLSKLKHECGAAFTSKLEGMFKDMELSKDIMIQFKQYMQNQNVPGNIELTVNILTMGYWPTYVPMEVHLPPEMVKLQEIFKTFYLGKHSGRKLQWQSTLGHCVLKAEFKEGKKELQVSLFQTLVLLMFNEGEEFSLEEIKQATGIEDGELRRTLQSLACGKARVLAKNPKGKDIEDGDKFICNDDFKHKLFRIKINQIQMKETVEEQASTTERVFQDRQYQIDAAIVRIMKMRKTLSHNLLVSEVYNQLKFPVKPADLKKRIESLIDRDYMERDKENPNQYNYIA

DDB1 = molecular target: T4, DDB1 (human, UniProt Q16531 2-1140); test: anti-FLAG immunopurification from HCT-116 lysate supplemented with indisulam, western blot (FIG. 4A)
T4 construct: also called Q16531_DDB1_HUMAN
T4 sequence (Q16531 2-1140 limits assumed): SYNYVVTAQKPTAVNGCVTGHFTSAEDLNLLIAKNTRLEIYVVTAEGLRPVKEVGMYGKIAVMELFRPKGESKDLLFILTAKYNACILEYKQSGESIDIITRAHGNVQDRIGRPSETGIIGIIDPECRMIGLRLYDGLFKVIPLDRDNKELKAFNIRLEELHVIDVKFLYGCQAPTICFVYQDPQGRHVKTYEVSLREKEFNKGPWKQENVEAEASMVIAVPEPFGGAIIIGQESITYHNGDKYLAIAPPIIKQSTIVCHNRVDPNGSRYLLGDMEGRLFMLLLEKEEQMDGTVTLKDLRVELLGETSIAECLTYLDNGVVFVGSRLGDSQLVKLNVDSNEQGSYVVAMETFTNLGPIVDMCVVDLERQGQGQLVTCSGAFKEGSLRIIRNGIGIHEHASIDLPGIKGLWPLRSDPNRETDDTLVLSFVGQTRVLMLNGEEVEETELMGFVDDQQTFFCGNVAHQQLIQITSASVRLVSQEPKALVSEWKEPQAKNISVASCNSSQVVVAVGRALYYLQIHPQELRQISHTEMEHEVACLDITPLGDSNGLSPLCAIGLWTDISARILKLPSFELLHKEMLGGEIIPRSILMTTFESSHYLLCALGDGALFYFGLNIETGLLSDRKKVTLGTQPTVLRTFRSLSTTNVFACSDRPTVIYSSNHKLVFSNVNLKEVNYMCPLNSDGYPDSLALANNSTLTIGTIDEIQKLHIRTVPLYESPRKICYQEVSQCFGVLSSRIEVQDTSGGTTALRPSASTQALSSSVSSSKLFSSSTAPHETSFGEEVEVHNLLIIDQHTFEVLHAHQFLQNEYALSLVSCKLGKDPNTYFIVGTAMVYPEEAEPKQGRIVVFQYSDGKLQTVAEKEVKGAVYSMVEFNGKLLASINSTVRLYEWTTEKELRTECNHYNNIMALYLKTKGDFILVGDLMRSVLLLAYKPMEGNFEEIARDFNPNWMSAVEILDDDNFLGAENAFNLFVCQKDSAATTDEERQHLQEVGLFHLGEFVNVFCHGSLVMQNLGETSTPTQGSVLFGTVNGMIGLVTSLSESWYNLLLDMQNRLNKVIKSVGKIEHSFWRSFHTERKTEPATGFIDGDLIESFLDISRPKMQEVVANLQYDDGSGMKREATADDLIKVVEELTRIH

T1 sequence (Q66K64 whole entry): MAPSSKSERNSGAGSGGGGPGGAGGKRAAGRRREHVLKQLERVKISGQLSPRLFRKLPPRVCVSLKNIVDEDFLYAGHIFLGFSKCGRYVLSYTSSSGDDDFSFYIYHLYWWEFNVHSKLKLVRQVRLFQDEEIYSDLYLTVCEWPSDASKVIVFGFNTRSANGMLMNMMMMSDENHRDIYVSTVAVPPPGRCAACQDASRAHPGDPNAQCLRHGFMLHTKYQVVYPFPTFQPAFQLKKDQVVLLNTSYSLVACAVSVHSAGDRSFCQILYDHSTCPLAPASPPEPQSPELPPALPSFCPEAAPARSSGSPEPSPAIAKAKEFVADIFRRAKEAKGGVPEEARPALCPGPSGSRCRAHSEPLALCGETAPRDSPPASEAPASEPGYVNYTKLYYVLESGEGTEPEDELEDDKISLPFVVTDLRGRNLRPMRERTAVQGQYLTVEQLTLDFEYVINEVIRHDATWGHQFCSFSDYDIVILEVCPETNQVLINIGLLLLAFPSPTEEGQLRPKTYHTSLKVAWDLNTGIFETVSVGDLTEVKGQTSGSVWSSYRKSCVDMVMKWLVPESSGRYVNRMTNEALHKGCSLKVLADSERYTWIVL

fold higher indisulam concentration required for recruitment, against wild type RBM39Δ150 (DCAF15-3xFLAG [1]): 100 fold
B1: RBM39Δ150 P272S (other, human, UniProt Q14498 151-530, looked up)
chain: DARTVFCMQLAARIRPRDLEEFFSTVGKVRDVRMISDRNSRRSKGIAYVEFVDVSSVPLAIGLTGQRVLGVPIIVQASQAEKNRAAAMANNLQKGSAGPMRLYVGSLHFNITEDMLRGIFESFGRIESIQLMMDSETGRSKGYGFITFSDSECAKKALEQLNGFELAGRPMKVGHVTERTDASSASSFLDSDELERTGIDLGTTGRLQLMARLAEGTGLQIPPAAQQALQMSGSLAFGAVAEFSFVIDLQTRLSQQTEASALAAAASVQPLATQCFQLSNMFNPQTEEEVGWDTEIKDDVIEECNKHGGVIHIYVDKNSAQGNVYVKCPSIAAAIAAVNALHGRWFAGKMITAAYVPLPTYHNLFPDSMTATQLLVPSRR
notes: domain: RRM1, RRM2, and RRM3 domains; Sf9 expression as for RBM39Δ150

binding result (DCAF15-3xFLAG [2]): no binding (tested: 10 µM indisulam)
B2: RBM39Δ150 E271Q (other, human, UniProt Q14498 151-530, looked up)
chain: DARTVFCMQLAARIRPRDLEEFFSTVGKVRDVRMISDRNSRRSKGIAYVEFVDVSSVPLAIGLTGQRVLGVPIIVQASQAEKNRAAAMANNLQKGSAGPMRLYVGSLHFNITEDMLRGIFQPFGRIESIQLMMDSETGRSKGYGFITFSDSECAKKALEQLNGFELAGRPMKVGHVTERTDASSASSFLDSDELERTGIDLGTTGRLQLMARLAEGTGLQIPPAAQQALQMSGSLAFGAVAEFSFVIDLQTRLSQQTEASALAAAASVQPLATQCFQLSNMFNPQTEEEVGWDTEIKDDVIEECNKHGGVIHIYVDKNSAQGNVYVKCPSIAAAIAAVNALHGRWFAGKMITAAYVPLPTYHNLFPDSMTATQLLVPSRR
notes: domain: RRM1, RRM2, and RRM3 domains; Sf9 expression as for RBM39Δ150; also called E271Q variant of RBM39Δ150

binding result (CUL4A): no binding (tested: 10 µM indisulam) | binding result (CUL4B): no binding (tested: 10 µM indisulam) | binding result (DDB1): no binding (tested: 10 µM indisulam)
B3: RBM39 G268V-3xFLAG (other, human, UniProt Q14498 1-530, looked up)
chain: MADDIDIEAMLEAPYKKDENKLSSANGHEERSKKRKKSKSRSRSHERKRSKSKERKRSRDRERKKSKSRERKRSRSKERRRSRSRSRDRRFRGRYRSPYSGPKFNSAIRGKIGLPHSIKLSRRRSRSKSPFRKDKSPVREPIDNLTPEERDARTVFCMQLAARIRPRDLEEFFSTVGKVRDVRMISDRNSRRSKGIAYVEFVDVSSVPLAIGLTGQRVLGVPIIVQASQAEKNRAAAMANNLQKGSAGPMRLYVGSLHFNITEDMLRVIFEPFGRIESIQLMMDSETGRSKGYGFITFSDSECAKKALEQLNGFELAGRPMKVGHVTERTDASSASSFLDSDELERTGIDLGTTGRLQLMARLAEGTGLQIPPAAQQALQMSGSLAFGAVAEFSFVIDLQTRLSQQTEASALAAAASVQPLATQCFQLSNMFNPQTEEEVGWDTEIKDDVIEECNKHGGVIHIYVDKNSAQGNVYVKCPSIAAAIAAVNALHGRWFAGKMITAAYVPLPTYHNLFPDSMTATQLLVPSRR
notes: From HCT-116 cells; for the ubiquitination assay expressed from pCDNA3.1 in 293T cells; also called RBM39-3xFLAG G268V; not shown: C-terminal 3xFLAG tag
